Measured values taken from publication PMC8126837 (Proceedings of the National Academy of Sciences of the …, 2021).
Where a chain is given by its changes, count along the chain named.

Legend:
[1] = target: T1, SARS-CoV-2 receptor-binding domain (RBD), wild type (SARS-CoV-2, UniProt P0DTC2, DyLight 488 (NHS ester, about 1.9 dye/protein) in the FRET assay only)
[2] = target: T1, SARS-CoV-2 receptor-binding domain …; test: cell-based or functional assay

B1: WNb 5 (VHH)
VHH: QVQLQESGGGLVQAGGSLRLSCAASGRTFSRYAIGWFRQAPGKEREGVSCISPSGGSTNYADSVKGRFTISRDNAKNTVYLQMNSLKPEDTAVYYCAASTPSYHYCSGYVSEYDYWGQGTQVTVSS
[1]
  binding result: binds

B2: WNb 26 (VHH)
VHH: QVQLQESGGGLVQAGGSLRLSCVVSGRTFSPYAMGWFRQAPGKEREFVAGMSWSSGKYYADSVKGRFTISRDGAKNAVYLQMNSLKPEDTAVYYCGAGGEGYSRGRVNLQPDFWGQGTQVTVSS
[1]
  binding result: binds

B3: WNb 33 (VHH)
VHH: QVQLQESGGGLVQPGGSLRLSCAASGFTFSSYLMGWARQVPGKGLEWVAGIYSDGSTYYADSVKGRFIISRDNAKNTVYLQMNSLKPEDTAVYYCAKDRMEGSTWPERDLGSWGQGTQVTVSS
[1]
  binding result: binds

B4: WNb 8 (VHH)
VHH: B3 VHH with L33A, A49S, I68T, M100L, G102S, T104S, L110F
[1]
  binding result: binds

B5: WNb 53 (VHH)
VHH: B3 VHH with G102D, L110F
[2]
  other: ≤ 80 nM

B6: WNb 11 (VHH)
VHH: B3 VHH with P14A, G16D, F27G, L110F
[1]
  binding result: binds

B7: WNb 54 (VHH)
VHH: B3 VHH with G26R, L33A, A49S, T104V, L110F
[1]
  binding result: binds

B8: WNb 63 (VHH)
VHH: B3 VHH with S30R, S31R, A49S, I68T, K97A, E101D, L110F
[1]
  binding result: binds

B9: WNb 22 (VHH)
VHH: B3 VHH with L33A, V48L, A49S, I68T, E101D, T104V, L110F
[1]
  binding result: binds

B10: WNb 68 (VHH)
VHH: B3 VHH with Y58H, D61N, I68T, E101A, T104R, L110F, S112F
[1]
  binding result: binds

B11: WNb 14 (VHH)
VHH: B3 VHH with L33A, A49S, T104S, L110F
[1]
  binding result: binds

B12: WNb 50 (VHH)
VHH: B3 VHH with L33A, A37F, A49S, I68T, K97A, E101A, T104R, L110F
[2]
  other: ≤ 80 nM

B13: WNb 6 (VHH)
VHH: B3 VHH with L33A, A37F, A49S, I68T, V78L, M100L, T104S, W105R, L110F
[1]
  binding result: binds

B14: WNb 52 (VHH)
VHH: B3 VHH with T28I, L33A, A49S, I68T, E88K, M100L, L110F
[1]
  binding result: binds

B15: WNb 9 (VHH)
VHH: B3 VHH with L33A, A49S, A60G, I68T, E101A, T104S, L110F
[1]
  binding result: binds

B16: WNb 13 (VHH)
VHH: B3 VHH with L33A, A37F, A49S, I68T, K97T, E101A, T104R, L110F
[1]
  binding result: binds

B17: WNb 35 (VHH)
VHH: B3 VHH with L33A, A49S, S56T, I68T, K97A, L110F
[1]
  binding result: binds

B18: WNb 60 (VHH)
VHH: B3 VHH with A37F, I68T, K97T, E101D, T104S, L110F
[1]
  binding result: binds

B19: WNb 58 (VHH)
VHH: B3 VHH with L33A, A37F, A49S, I68T, K97A, E101D, T104R, L110F
[1]
  binding result: binds

B20: WNb 45 (VHH)
VHH: B3 VHH with L33A, A37F, A49S, I68T, K97A, T104S, L110F
[1]
  binding result: binds

B21: WNb 67 (VHH)
VHH: QVQLQESGGGLVQPGGSLRLSCAVSGFTLDYYAIGWFRQAPGKEREGVSCISSSGGSTNYADSVKGRFTISRDNATNTVYLQMNSLKPEDTAVYYCAAIAATYYGGSYYYQCPHYGMDYWGKGTQVTVSS
[2]
  other: ≤ 80 nM

B22: WNb 41 (VHH)
VHH: B21 VHH with T76K, S85G, G105S, Y115D
[2]
  other: ≤ 80 nM

B23: WNb 34 (VHH)
VHH: QVQLQESGGGLVEAGDSLRLSCAASGRTFSRYAMGWFRQAPGKEREFVAAVSWNGGNTYYADSVKGRFTISRDNAKNTLYLQMNSLKPEDTAVYYCAAGGEPVVVIKLRNANEYDFLGQGTQVTVSS
[1]
  binding result: binds

B24: WNb 24 (VHH)
VHH: B23 VHH with E13Q, D16E, N112D
[1]
  binding result: binds

B25: WNb 31 (VHH)
VHH: QVQLQESGGGLVQAGDSLRLSCTASGRALNTYTVAWWRQAPGNEREFVASIIWSSGAAWYADAVKGRFTISRDNAKNTVDLQMTSLKPEETAIYFCAVGQWEGRDTWYTSYDYWGQGTQVTVSS
[1]
  binding result: binds

B26: WNb 27 (VHH)
VHH: QVQLQESGGGLVEAGDSLRLSCAASGRTFSRYAMGWFRQAPGKEREFVAAVSWNGGNTYYADSVKGRFTISRDNAKNTLYLQMNSLKPEDTARYYCVADRGESYYYNRDSEYEWWGQGTQVTVSS
[1]
  binding result: binds

B27: WNb 25 (VHH)
VHH: QVQLQESGGGLVQAGGSLRLSCVTSGLTFSRAAMGWFRQAPEKEREFVASIHWRGLNIAYADSVKGRFTISRDDAKNTLYLQMNSLKTEDTAVYYCAAIPFYYFDHISPFSRAAAYWGQGTQVTVSS
[1]
  binding result: binds

B28: WNb 70 (VHH)
VHH: QVQLQESGGGLVQPGGSLNISCASNGFTLDFYAIGWFRQAPGKEREGVSCISSSGGSSKYSDSVKGRFTISRDNAKNTVYLQMNSLQPEDTAVYYCAAQMGSSEYCPIFIPGEGMDYWGKGTQVTVSS
[1]
  binding result: binds

B29: WNb 4 (VHH)
VHH: B28 VHH with N19R, I20L, S24A, N25S, F31Y, S58T, K59N, S61A, E104R, I110T
[1]
  binding result: binds

B30: WNb 3 (VHH)
VHH: B28 VHH with N19R, I20L, S24A, N25S, F31Y, S58T, K59N, S61A, Q87K, E104R
[1]
  binding result: binds

B31: WNb 62 (VHH)
VHH: QVQLQESGGGLVQAGGSLRLSCTASRRTFSTCVMGWARQVPGKGLEWVSGIYSDGSTYYADSVKGRFTISRDNAKNTVYLQMNSLKPEDTAVYYCNLDGRYENLEDDYWGQGTQVTVSS
[1]
  binding result: binds

B32: WNb 32 (VHH)
VHH: QVQLQESGGGLVQAGGSLGLSCAASGRPLNSYSMAWFRQAPGKEREFVASIGRSDGLSKYNDFVKDRFTLSRGNAKTTLLLQMNNLKVEDTAVYYCSAALWDGWATDINEYDYRGQGTQVTVSS
[1]
  binding result: binds

B33: WNb 61 (VHH)
VHH: QVQLQESGGGLVQPGGSLNISCASNGFTLDFYAIGWFRQAPGKEREGVSCISRSGSNINYAESLKGRATISRDNAKNTIYLQMSNLRTEDTAVYYCAATPSGVATAQGPCDLTRWYDNWGQGTQVTVSS
[1]
  binding result: binds

B34: WNb 30 (VHH)
VHH: QVQLQESGGGLVQPGGSLRLSCVASGITLDYYAIGWFRQAPGKEREGVSCLSSSDGSTYYADSVKGRFTMSRDNVKNTVYLQMNSLKPEDTAVYYCATNPLTVVDGTFHLTCLDEYDYGGQGTQVTVSS
[1]
  binding result: binds

B35: WNb 59 (VHH)
VHH: QVQLQESGGGLVQPGGSLRLSCAASGGTLDYYAIGWFRQAPGKEREGVSCIMSSGGPTYFAGSVKGRFTISRDNAKNTVYLQMNSLKPEDTAVYYCAADPHGFDCSPSGGMDYWGKGTQVTVSS
[1]
  binding result: binds

B36: WNb 17 (VHH)
VHH: QVQLQESGGGLVQPGGSLRLSCAASGSIFSINVMGWYRQAPGKQRELVAAITSVGSTNYADSVKGRFTISRDNAENTVYLQMNSLKPEDTAVYYCNAVSTFTQAMGGSPEHYWGQGTQVTVSS
[1]
  binding result: binds

B37: WNb 20 (VHH)
VHH: QVQLQESGGGLVQPGGSLRLSCAASGFTLEHYAIGWFRQAPGKEREGVSCISNSGGRTNYADSVKGRFTISRDNAKNTVYLQMNSLKPEDTAVYYCAADLGVVERLCPAHPGSYEYDYWGQGTQVTVSS
[1]
  binding result: binds

B38: WNb 19 (VHH)
VHH: QVQLQESGGGLVQPGGSLRLSCAASGSMFSINVMGWYRQASGKQRELVAGITRDGATNYSDSVKGRFTISGDNAKNTVYLQMNSLKPEDTAVYYCNTNVDSVWGSRIDYFGQGTQVTVSS
[2]
  other: ≤ 80 nM

B39: WNb 1 (VHH)
VHH: QVQLQESGGGLVQAGGSLRLSCAASGRTFDRYAMGWFRQVPGKGLEWVSGIYSDGYTYYADSVKGRFTISRDNAKNTVYLQMNSLKPEDTAVYYCAADRMDGSSWPERDFGSWGQGTQVTVSS
[1]
  binding result: binds

B40: WNb 29 (VHH)
VHH: QVQLQESGGGLVQPGGSLRLSCAFSGRTFSMYAMGWFRQAPGKEREFVAVIDDGGGRTYYADSVKGRFTISRDNAKNTVYLQMNSLKTEDTAVYCCAADMGFGYTIWADSYDYWGQGTQVTVSS
[1]
  binding result: binds

B41: WNb 69 (VHH)
VHH: QVQLQESGGGLVQPGGSLRLSCAASGFTLDYYGIGWFRQAPGKEREGVSCISASGTSTKYVNSVKGRFTISRDNAKNTVYLQMNSLKPEDTAVYYCAAISGSYYYTSLHPVEYDSWGQGTQVTVSS
[1]
  binding result: binds

B42: WNb 49 (VHH)
VHH: B41 VHH with C50G, K59N, V61A, N62D, I70V, G101A
[1]
  binding result: binds

B43: WNb 46 (VHH)
VHH: B41 VHH with L11Q, K43Q, C50S, A53T, K59N, V61A, S115Y
[1]
  binding result: binds
